Biological target: T1, odorranalectin (Odorrana grahami)
T1 chain: YASPKCFRYPNGVLACT
Test: SPR; glycans on fetuin (lectin-type recognition of a glycoprotein); calcium not required

B1: fetuin (protein)
chain: IPLDPVAGYKEPACDDPDTEQAALAAVDYINKHLPRGYKHTLNQIDSVKVWPRRPTGEVYDIEIDTLETTCHVLDPTPLANCSVRQQTQHAVEGDCDIHVLKQDGQFSVLFTKCDSSPDSAEDVRKLCPDCPLLAPLNDSRVVHAVEVALATFNAESNGSYLQLVEISRAQFVPLPVSVSVEFAVAATDCIAKEVVDPTKCNLLAEKQYGFCKGSVIQKALGGEDVRVTCTLFQTQPVIPQPQPDGAEAEAPSAVPDAAGPTPSAAGPPVASVVVGPSVVAVPLPLHRAHYDLRHTFSGVASVESSSGEAFHVGKTPIVGQPSIPGGPVRLCPGRIRYFKI
B1 was tested, and the Kd was 211 nM.

From publication PMC2440032 (2008)
